Reference: patent US5773001 (American Cyanamid Company, dated 1998)
Like-named read-outs stand apart in the source and are kept apart here.

Experiments:
CD33 antigen (human) [1] = molecular target: CD33 antigen (human) (UniProt P20138)
CD33 antigen (human) [2] = molecular target: CD33 antigen (human) (UniProt P20138); experiment: competition with 125I-labelled native antibody on HEL 92.1.7 cells; IC50 (reference) / IC50 (sample)
CD33 antigen (human) [3] = molecular target: CD33 antigen (human) (UniProt P20138); remark: listed apart in the source
CD33 antigen (human) [4] = molecular target: CD33 antigen (human) (UniProt P20138); remark: listed apart in the source
CD33 antigen (human) [5] = molecular target: CD33 antigen (human) (UniProt P20138); remark: listed apart in the source
[6] = molecular target: T1, glycoprotein antigen present on colon cancer cells, recognized by A33 (Homo sapiens (Human)) (UniProt Q99795); experiment: competition on Colo205 cells, FACScan; competitor FITC-labelled murine A33
T1 sequence: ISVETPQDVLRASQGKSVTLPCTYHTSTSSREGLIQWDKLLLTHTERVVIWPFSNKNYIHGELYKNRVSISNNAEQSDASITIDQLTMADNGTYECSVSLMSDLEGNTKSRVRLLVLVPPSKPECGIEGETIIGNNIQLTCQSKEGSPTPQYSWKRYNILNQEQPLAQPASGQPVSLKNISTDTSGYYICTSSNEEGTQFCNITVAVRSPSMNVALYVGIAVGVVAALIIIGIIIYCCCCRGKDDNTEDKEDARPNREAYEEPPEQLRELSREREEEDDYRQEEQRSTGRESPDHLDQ

[7] = molecular target: T1, glycoprotein antigen present on colon cancer cells, recognized by A33 (Homo sapiens (Human)); experiment: competition with 125I-labelled native antibody on COLO 205 cells; IC50 (reference) / IC50 (sample)
[8] = molecular target: T1, glycoprotein antigen present on colon cancer cells, recognized by A33 (Homo sapiens (Human))
CD33 antigen (human) [9] = molecular target: CD33 antigen (human) (UniProt P20138); remark: listed apart in the source
CD33 antigen (human) [10] = molecular target: CD33 antigen (human) (UniProt P20138); experiment: competition with 125I-labelled native antibody on HEL 92.1.7 cells; IC50 (reference) / IC50 (sample); remark: listed apart in the source
CD33 antigen (human) [11] = molecular target: CD33 antigen (human) (UniProt P20138); remark: listed apart in the source
CD33 antigen (human) [12] = molecular target: CD33 antigen (human) (UniProt P20138); remark: listed apart in the source

Conjugate of 5-(4-acetylphenyl)amino!-5-oxopentanoic acid (24) condensed with Calicheamicin N-acetyl gamma dimethyl hydrazide and m-P67.6 (antibody)
In vitro IC50 (3H-thymidine incorporation) (CD33 antigen (human) [1]): < 0.005 ng/mL | Rel. Affinity (CD33 antigen (human) [2]): 0.73

Conjugate of 11-(4-acetylphenoxy)undecanoic acid (23) condensed with Calicheamicin N-acetyl gamma dimethyl hydrazide and m-P67.6 (antibody)
In vitro IC50 (3H-thymidine incorporation) (CD33 antigen (human) [3]): 0.47 ng/mL | Rel. Affinity (CD33 antigen (human) [2]): 1.16

Conjugate of 4-formylbenzoic acid (2) condensed with Calicheamicin N-acetyl gamma dimethyl hydrazide and m-P67.6 (antibody)
In vitro IC50 (3H-thymidine incorporation) (CD33 antigen (human) [4]): 4 ng/mL | Rel. Affinity (CD33 antigen (human) [2]): 1.05

Conjugate of 5-acetyl-2-(3-carboxypropoxy)benzoic acid (26), methyl ester condensed with Calicheamicin N-acetyl gamma dimethyl hydrazide and h-P67.6 (antibody)
In vitro IC50 (3H-thymidine incorporation) (CD33 antigen (human) [5]): < 0.005 ng/mL | Rel. Affinity (CD33 antigen (human) [2]): 0.79

humanized A33 (antibody)
relative potency against the murine antibody [6]: 75%

B1: Conjugate of 4-(4-acetylphenoxy)butanoic acid (7) condensed with calicheamicin N-acetyl gamma dimethyl hydrazide and m-A33 (antibody, V domains shown)
VH: EVKLVESGGGLVKPGGSLKLSCAASGFAFSTYDMSWVRQTPEKRLEWVATISSGGSYTYYLDSVKGRFTISRDSPRNTLYLQMSSLRSEDTALYYCAPTTVVPFAYWGQGTLVTVSA
VL: DIVMTQSQKFMSTSVGDRVSITCKASQNVRTVVAWYQQKPGQSPKTLIYLASNRHTGVPDRFTGSGSGTDFTLTISNVQSEDLADYFCLQHWSYPLTFGSGTKLEVKR
modifications: drug-linker amide on lysine side chains, sites not stated; drug-linker amide on lysine side chains, sites not stated
Rel. Affinity [7]: 0.68 | In vitro IC50 (3H-thymidine incorporation) [8]: 3.32 ng/mL

B2: Conjugate of 4-4-(4-fluorobenzoyl)phenoxy!butanoic acid (21) condensed with Calicheamicin N-acetyl gamma dimethyl hydrazide and h-P67.6 (antibody, V domains shown)
VH: EVQLVQSGAEVKKPGSSVKVSCKASGYTITDSNIHWVRQAPGQSLEWIGYIYPYNGGTDYNQKFKNRATLTVDNPTNTAYMELSSLRSEDTDFYYCVNGNPWLAYWGQGTLVTVSS
VL: DIQLTQSPSTLSASVGDRVTITCRASESLDNYGIRFLTWFQQKPGKAPKLLMYAASNQGSGVPSRFSGSGSGTEFTLTISSLQPDDFATYYCQQTKEVPWSFGQGTKVEVKR
modifications: drug-linker amide on lysine side chains, sites not stated; drug-linker amide on lysine side chains, sites not stated
In vitro IC50 (3H-thymidine incorporation) (CD33 antigen (human) [9]): 99 ng/mL | Rel. Affinity (CD33 antigen (human) [10]): 0.67

B3: Conjugate of 4-4-(4-fluorobenzoyl)phenoxy!butanoic acid (21) condensed with Calicheamicin N-acetyl gamma, dimethyl hydrazide and h-P67.6 (antibody, V domains shown)
VH: EVQLVQSGAEVKKPGSSVKVSCKASGYTITDSNIHWVRQAPGQSLEWIGYIYPYNGGTDYNQKFKNRATLTVDNPTNTAYMELSSLRSEDTDFYYCVNGNPWLAYWGQGTLVTVSS
VL: DIQLTQSPSTLSASVGDRVTITCRASESLDNYGIRFLTWFQQKPGKAPKLLMYAASNQGSGVPSRFSGSGSGTEFTLTISSLQPDDFATYYCQQTKEVPWSFGQGTKVEVKR
modifications: drug-linker amide on lysine side chains, sites not stated; drug-linker amide on lysine side chains, sites not stated
Rel. Affinity (CD33 antigen (human) [10]): 0.76 | In vitro IC50 (3H-thymidine incorporation) (CD33 antigen (human) [11]): 63 ng/mL

B4: Conjugate of 4-(4-acetylphenyl)-1-piperazinepentanoic acid (22) condensed with Calicheamicin N-acetyl gamma dimethyl hydrazide and h-P67.6 (antibody, V domains shown)
VH: EVQLVQSGAEVKKPGSSVKVSCKASGYTITDSNIHWVRQAPGQSLEWIGYIYPYNGGTDYNQKFKNRATLTVDNPTNTAYMELSSLRSEDTDFYYCVNGNPWLAYWGQGTLVTVSS
VL: DIQLTQSPSTLSASVGDRVTITCRASESLDNYGIRFLTWFQQKPGKAPKLLMYAASNQGSGVPSRFSGSGSGTEFTLTISSLQPDDFATYYCQQTKEVPWSFGQGTKVEVKR
modifications: drug-linker amide on lysine side chains, sites not stated; drug-linker amide on lysine side chains, sites not stated
In vitro IC50 (3H-thymidine incorporation) (CD33 antigen (human) [12]): 12 ng/mL | Rel. Affinity (CD33 antigen (human) [10]): 0.98
